From PMC6182156

Columns and labels:
Assay in all cases: native gel or EMSA
[1] = biological target: 12 x 200 x 601 (12N200) nucleosome array, unmodified histones
[2] = biological target: 12N200 nucleosome array assembled with linker histone H1.4 (UniProt P10412)
[3] = biological target: 147 bp nucleosome core particle (N147), unmodified histones
[4] = biological target: H2A.Z/H3K9cme3 12N200 nucleosome array (UniProt P0C0S5)
[5] = biological target: H2A.Z/H3K9cme3 12N200 nucleosome array saturated with H1.4 (UniProt P0C0S5)
[6] = biological target: N203 mononucleosome with a stoichiometric amount of linker histone H1.4 (UniProt P10412)
[7] = biological target: symmetric 203 bp mononucleosome (N203), unmodified histones

HP1α (Heterochromatin Protein 1 alpha), wild type (from UniProt P45973 1-191) (natural protein)
K1/2 [1]: 0.71 µM | K1/2 [2]: 2.15 µM | K1/2 [3]: 2.29 µM | K1/2 [4]: 0.23 µM | K1/2 [5]: 1.15 µM | K1/2 [6]: 1.26 µM | K1/2 [7]: 0.58 µM
